# Target: Spike protein of patient-derived SARS-CoV-2 (D614G) (SARS-CoV-2) (UniProt P0DTC2)
# Assay: cell-based or functional assay
Substance,neutralization by the trimer against the monomer [fold],partial neutralization [nM]
VHH-72 ColXVIII trimer,10000,
VHH-72 monomer,,170

# From patent US20230287087A1
